Data published in US20240240209A1, “SYNTHESIS OF ENANTIOPURE CIS-A-IRONE FROM A RENEWABLE CARBON SOURCE” (Agency for Science, Technology and Research, priority 2021, published 2024).
Numbering of substitutions follows the chain as printed. Numbers in names are those of the source. Where “and” joins values, the source holds several entries; their conditions need not be identical. Equal values may be shown once. Entries after “also recorded” stand apart in the source; their conditions may differ.

B1: pMT7: pMT1 with Y200F S182E L273V L180A A202L Y65F (protein)
chain: MPQEARTPQQQVTADEVGDWYDKFGEVYHLTLGESVHCGLWFPPDAPVPQDMELVTMSSQAQDRFTDYLIETLDPKAGQHLLDIGCGTGRTALKAARQRGIAVTGVAVSKEQIAAANRLAAGHGLTERLTFEVADAMRLPYEDESFDCAWAIESLCHMDRAKALGEAWRVLKPGGDLLVAEEVVTEELTEPETALFETLFALNVPPRLGEFFDIVSGAGFHTLSLKDLSANLAMTMNVFALGVYSRRAEFTERFGAEFVDGLLAGLGSAQETVIRKTRFFMATLRKPAV
modifications: Modified from pMT1
notes: pMT1 with Y200F S182E L273V L180A A202L Y65F
B2: pMT10: pMT1 with Y200F S182E L273V L180A A202L Y65F C156A T91P (protein)
chain: B1 chain with T91P, C156A
modifications: Modified from pMT1
notes: pMT1 with Y200F S182E L273V L180A A202L Y65F C156A T91P

How the values were obtained:
[1] = Stability of pMT7 (native PAGE, pre-incubation at 28° C.); settings: incubating or reacting at 28° C. overnight
Method: (28 C) or 4° C. (4 C). […] All the data shown is an average of replicate reaction.
The steady-state kinetic parameters of pMT7 were determined (Table 3). […] While determining the steady-state kinetics of pMT7, it was noticed that the reaction with purified pMT7 stopped at 6 h before significant conversion had taken place (FIG. 15a). Moreover, while using cell extracts containing pMT7, the reaction reached a plateau after 1-day incubation (FIG. 15b). […] Since pMT7 is an hexamer in solution^10, its oligomeric state before and after the reaction was examined. […] (28 C) overnight as compared to 4° C. […] It was further tested if the enzyme was subject to feedback inhibition, as the cofactor product SAH is a potent inhibitor of methyltransferases^12.

[2] = In vitro biotransformation of psi-ionone to cis-α-irone by cell lysate containing overexpressed pMT10; type: biochemical; settings: 28° C., 3 days
Method: All the purified enzyme reactions were done in triplicates.
With the positive effect of mtaD, in vitro biotransformation by using cell lysate containing overexpressed pMT10 and mtaD was explored. To challenge the enzyme, 10 mg/L (0.05 mM), 100 mg/L (0.5 mM) or 1000 mg/L (5 mM) of psi-ionone was supplemented into the reaction, and 6.4 mg/L (˜0.03 mM), 54 mg/L (˜0.26 mM) and 182 mg/L (˜0.88 mM) of cis-α-irone were produced, respectively after incubating the reaction at 28° C. for 3 days (FIG. 3d).

[3] = Fed-batch production of cis-α-irone in 5 L bioreactor; type: cell-based, Escherichia coli; settings: 10% DO, another 24 h after feeding stopped
Method: FIGS. 5a and 5b show the time-course profiles of OD600, cis-α-irone, β-irone and psi-ionone titers when DO was controlled at 2% and 10% respectively.
Lastly, a single-phase fed-batch process was tested in a 5 L bioreactor. Even though 2O31 ΔmetJ strain produced a higher titer of cis-α-irone, its growth seemed to be impeded during fermentation. Thus, 2O31-pMT10 strain was tested. The optimized bioprocess for α-ionone was applied^8, in which the glucose feeding rate was set at 10 g/h and the glucose concentration was kept between 0-5 g/L. Two different dissolved oxygen (DO) levels were tested: 2% and 10%. Under these DO settings, evaporation was kept at minimum which is <0.05%. […] Subsequently, cis-α-irone production became faster at 2% DO than 10% DO. At 113 h, when glucose feeding was stopped, approximately 109 mg/L and 106 mg/L cis-α-irone were produced at 2% and 10% DO respectively. By continuing incubating the cultures for another 24 h, a final titer of approximately 153 mg/L and 172 mg/L cis-α-irone were produced at 2% and 10% DO respectively. Simultaneously, a decrease in psi-ionone concentration was observed during the last 24 h, indicating psi-ionone was converted to cis-α-irone. Other DO levels may also be used, for example 15%. […]

Molecule	stability of enzyme [1]	cis-α-irone produced ([2]; 10 mg/L (0.05 mM) psi-ionone)	cis-α-irone produced ([2]; 100 mg/L (0.5 mM) psi-ionone)	final titer of cis-α-irone [3]
B1	remained intact as hexamer; also recorded: stable under the reaction temperature			
B2		6.4 mg/L and ~0.03 mM	54 mg/L and ~0.26 mM	~172 mg/L
